Earlier results on one substance are cited in publication PMC6983177.

As usually defined, the Kd is the free concentration of one partner at which half of the binding sites on the other are occupied at equilibrium, for simple one-to-one binding.

One data set addresses pCDC25c (Homo sapiens) (UniProt P30307).
Data set [1] addresses RNA polymerase II CTD phosphopeptide (Homo sapiens) (UniProt P24928). Nature of the data set: isothermal titration calorimetry. In general terms: ITC needs no label: the signal is the heat of the interaction.

Sequence of UniProt P30307 (P30307 2-473): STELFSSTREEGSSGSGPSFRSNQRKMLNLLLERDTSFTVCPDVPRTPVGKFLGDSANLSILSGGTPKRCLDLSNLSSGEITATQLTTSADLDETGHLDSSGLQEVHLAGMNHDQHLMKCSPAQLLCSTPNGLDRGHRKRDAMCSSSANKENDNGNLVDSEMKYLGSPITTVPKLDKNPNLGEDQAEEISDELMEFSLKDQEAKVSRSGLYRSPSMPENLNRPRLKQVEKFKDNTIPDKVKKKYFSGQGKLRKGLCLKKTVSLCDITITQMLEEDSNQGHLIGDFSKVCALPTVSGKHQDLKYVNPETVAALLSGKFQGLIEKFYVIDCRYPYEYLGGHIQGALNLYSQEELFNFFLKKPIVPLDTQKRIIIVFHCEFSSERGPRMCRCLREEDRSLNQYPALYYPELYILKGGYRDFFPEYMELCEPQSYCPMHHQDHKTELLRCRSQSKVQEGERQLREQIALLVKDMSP

Take Pin1 WW (from UniProt Q13526): the results for the Kd (with pCDC25c (Homo sapiens); in data set [1]) were 8 µM and 35 µM, respectively.
